How the values were obtained:
[1] = tested on: caspase 8 in HCT116 lysates; test: Caspase 8 activity (caspase glo 8) of cell lysates / IP inputs; assay type: cell-based, Homo sapiens; details: for average fold change rel to empty: mean of 4 dilutions
Method: Cells harvested from a 6-well plate were resuspended in 100 μl of lysis buffer (30 mM HEPES pH 7.2, 150 mM NaCl, 1% Triton X-100) and lysed via needle shearing (25G, 10 passes) followed by a 30 min incubation on ice. Supernatant was collected after centrifuging at 1000xg for 5 min. For the caspase activity assay, 10 μl of supernatant diluted with lysis buffer (1:25, 1:50, 1:100 to stay within linear range of luminescence measurements) was incubated with 10 μl of the luminogenic caspase glo 8 substrate (Promega #PRG8200) in a 384-white walled plate (Corning 3574) for 45 min at RT before measuring luminescence on a Spectramax-M5 plate reader.

[2] = tested on: DR5 / ERGIC53 / giantin in HCT116 cells; test: Immunofluorescence co-localization (Pearson's correlation per cell); assay type: cell-based, Homo sapiens
Method: HCT116 were seeded at 25000 cells per well in an 8-well glass-bottom μSlide (Ibidi 80827) pre-coated with Collagen IV (Sigma-Aldrich C6745, 0.03 mg/ml in PBS incubated for 30 min at RT, and then rinsed off with PBS x 3) in growth media 18 hr prior to transfection (see above for protocol). 24 hr post-transfection, the cells were fixed using 4% paraformaldehyde (PFA, Electron Microscopy Sciences) or methanol, depending on the antibody combination used for immunostaining (see table below). Samples were protected from light after fixation to preserve GFP fluorescence.
For fixation with 4% PFA, 32% PFA was added directly to the well in growth media for a 1:8 dilution and incubated for 10–15 min at RT. Cells were then permeabilized with PHEM buffer (60 mM PIPES, 25 mM HEPES, 10 mM EGTA, 2 mM MgCl2-hexahydrate, pH 6.9) containing 0.1% Triton-X100 for 10 min at RT for three washes.
For fixation with methanol, media was removed and cells were washed with cold PBS. Then methanol (pre-cooled at −20°C) was added to the well and incubated at −20°C for 3–4 min. The methanol was promptly aspirated and replaced with PHEM buffer (without Triton X-100), followed by two more 10 min washes with PHEM at RT.
To block against non-specific antibody interactions, cells were rinsed in PHEM (without 0.1% Triton X-100) and then incubated with PHEM containing 2% normal goat serum (Jackson Immunoresearch Laboratories, 005-000-121) for 1 hr at RT. Primary antibodies were incubated in blocking solution overnight at 4°C at the dilution noted in the table above. […]
From the 405 nm channel, cell nuclei were identified as primary objects using maximum correlation thresholding (MCT) and shape to distinguish clumped objects. […] For overlap between DR5 and MPZ/RHO-GFP, Pearson’s correlation coefficients were calculated within the MPZ/RHO mask for each cell to filter out untransfected cells. For overlap between DR5/MPZ and organelle markers, Pearson’s correlation coefficients were calculated within tertiary objects for the organelle marker in GFP+ cells. […]

[3] = MPZ-positive cells, N > 55, 24 hr, mean

B1: MPZ-GFP: myelin protein zero with a C-terminal monomeric EGFP, expressed from plasmid (protein)
chain: IVVYTDREVHGAVGSRVTLHCSFWSSEWVSDDISFTWRYQPEGGRDAISIFHYAKGQPYIDEVGTFKERIQWVGDPRWKDGSIVIHNLDYSDNGTFTCDVKNPPDIVGKTSQVTLYVFEKVPTRYGVVLGAVIGGVLGVVLLLLLLFYVVRYCWLRRQAALQRRLSAMEKGKLHKPGKDASKRGRQTPVLYAMLDHSRSTKAVSEKKAKGLGESRKDKK
modifications: left off: monomeric EGFP, C-terminal, kept
notes: myelin protein zero with a C-terminal monomeric EGFP, expressed from plasmid
With B1 the “average fold change rel to empty” value ([1]; 3 hr) was 0.9963 fold, the “average fold change rel to empty” value ([1]; 7 hr) was 0.909 fold and the “average fold change rel to empty” value ([1]; 10 hr) was 1.233 fold. The “average fold change rel to empty” value ([1]; 20 hr) was 1.145 fold, the “average fold change rel to empty” value ([1]; 24 hr) was 2.224 fold and the average fold change ([1]; Rep 1, HCT116 lysate, amount not given, normalized RLUs relative to empty (GFP), average over four lysate dilutions) was 2.827 fold. The “fold change relative to empty” value ([1]; input, dilution 0.01, rep1) was 2.2, the “fold change relative to empty” value ([1]; input, dilution 0.01, rep2) was 1.925 and the “fold change relative to empty” value ([1]; input, dilution 0.01, rep3) was 0.9528. The “fold change relative to empty” value ([1]; input, dilution 0.02, rep1) was 2.798, the “fold change relative to empty” value ([1]; input, dilution 0.02, rep2) was 1.811 and the “fold change relative to empty” value ([1]; input, dilution 0.02, rep3) was 1.706. The avg fold change ([1]; input, dilution 0.02, second listing, relative to avg. empty, average of rep1-rep3) was 1.9619, the “fold change relative to empty” value ([1]; input, dilution 0.02, second listing, rep2) was 1.832 and the “fold change relative to empty” value ([1]; input, dilution 0.02, second listing, rep3) was 1.342. The “fold change in caspase 8 activity relative to empty, Mean ± SEM” value ([1]; inputs of GFP pulldown, n=6) was 1.899 ± 0.2476, n=6 fold, the “Pearson's correlation per cell between DR5 and ERGIC53” value [2, 3] was 0.61 ± 0.03 and the “Pearson's correlation per cell between DR5 and giantin” value [2, 3] was 0.14 ± 0.02. The “overlap (mean Pearson's correlation) with DR5 signal” value ([2]; versus 90° rotated images, 24 hr) was “statistically significant overlap with DR5 signal”.
